Measured values from patent publication US20230002496A1 (STAIDSON BEIJING BIOPHARMACEUTICALS, published 2023).
Residue numbers refer to the chain shown, from its start.

T1: human GM-CSFRα, full length on cells (human, UniProt P15509 23-400)
T1 sequence: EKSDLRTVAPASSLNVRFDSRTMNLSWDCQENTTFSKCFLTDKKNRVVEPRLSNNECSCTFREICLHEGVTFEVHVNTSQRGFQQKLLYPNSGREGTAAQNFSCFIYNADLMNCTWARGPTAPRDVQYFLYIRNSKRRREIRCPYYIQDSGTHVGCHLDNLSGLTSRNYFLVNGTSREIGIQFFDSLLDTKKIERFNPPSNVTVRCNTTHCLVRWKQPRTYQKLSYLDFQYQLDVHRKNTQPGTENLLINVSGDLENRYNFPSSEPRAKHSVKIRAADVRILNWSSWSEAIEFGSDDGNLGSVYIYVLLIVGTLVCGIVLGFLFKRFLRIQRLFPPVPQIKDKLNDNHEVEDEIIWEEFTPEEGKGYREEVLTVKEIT

B1: E35-scFv LY32A (scFv, V domains shown)
VH: QMQLVQSGAEVKKPGASVKVSCKVSGYTLTELSIHWVRQAPGKGLEWMGGFDPEDGETIYAQKFQGRVTMTGDTSTDTAYLELSSLRSEDTALYYCATGRYTSLATTYGFDYWGQGTLVTVSS
VL: EIVMTQSPATLSLSPGERATLSCRASQSVSSALAWYQQKPGQAPRLLIYGASSRATGIPDRFSGSGSGTDFTLTISRLEPEDFAVYYCQQYDNWPYTFGQGTKLEIK
B2: E35-scFv LS52R (scFv, V domains shown)
VH: B1 VH
VL: B1 VL with A32Y, S52R
B3: E35-scFv LY32E (scFv, V domains shown)
VH: B1 VH
VL: B1 VL with A32E
B4: E35-scFv LY32N (scFv, V domains shown)
VH: B1 VH
VL: B1 VL with A32N
B5: E35-scFv LS52A (scFv, V domains shown)
VH: B1 VH
VL: B1 VL with A32Y, S52A
B6: E35-scFv LS52Q (scFv, V domains shown)
VH: B1 VH
VL: B1 VL with A32Y, S52Q
B7: E35-scFv LS52W (scFv, V domains shown)
VH: B1 VH
VL: B1 VL with A32Y, S52W
B8: E35-scFv LY32P (scFv, V domains shown)
VH: B1 VH
VL: B1 VL with A32P
B9: E35-scFv LS52F (scFv, V domains shown)
VH: B1 VH
VL: B1 VL with A32Y, S52F
B10: E35-scFv LS52Y (scFv, V domains shown)
VH: B1 VH
VL: B1 VL with A32Y, S52Y
B11: E35-scFv LY32K (scFv, V domains shown)
VH: B1 VH
VL: B1 VL with A32K
B12: E35-scFv LS52L (scFv, V domains shown)
VH: B1 VH
VL: B1 VL with A32Y, S52L
B13: E35-scFv LY32C (scFv, V domains shown)
VH: B1 VH
VL: B1 VL with A32C
B14: E35-scFv LS52T (scFv, V domains shown)
VH: B1 VH
VL: B1 VL with A32Y, S52T
B15: E35-scFv LY32R (scFv, V domains shown)
VH: B1 VH
VL: B1 VL with A32R
B16: E35-scFv LY32G (scFv, V domains shown)
VH: B1 VH
VL: B1 VL with A32G

Target: T1, human GM-CSFRα, full length on cells
Assay: cell-based or functional assay

| IC50, TF-1 cell proliferation | Binder |
| --- | --- |
| 1.35 µg/mL | B1 |
| 0.089 µg/mL | B2 |
| 3.75 µg/mL | B3 |
| 2.05 µg/mL | B4 |
| 0.068 µg/mL | B5 |
| 0.138 µg/mL | B6 |
| 0.073 µg/mL | B7 |
| 5.15 µg/mL | B8 |
| 0.167 µg/mL | B9 |
| 0.181 µg/mL | B10 |
| 9.6 µg/mL | B11 |
| 0.115 µg/mL | B12 |
| 1.9 µg/mL | B13 |
| 0.136 µg/mL | B14 |
| 3.12 µg/mL | B15 |
| 1.35 µg/mL | B16 |
